The text below walks through data of paper PMC3057327 (Methods (San Diego, Calif.), 2011).

Data set [1] deals with the molecule itself. Nature of the data set: aggregates isolated by centrifugation + limited proteolysis.
Data set [2] deals with the molecule itself. Nature of the data set: sedimentation assay.

B1: htt^NTQ20P10K2 (huntingtin N-terminal fragment peptide) (peptide)
chain: MATLEKLMKAFESLKSFQQQQQQQQQQQQQQQQQQQQPPPPPPPPPPKK
B1: in data set [1], the binding result is “binds”.

B2: K2Q23K2 (peptide)
chain: KKQQQQQQQQQQQQQQQQQQQQQQQKK
In the case of B2, the binding result in data set [2] is recorded as “binds”.
